Data from PMC5656675, “Structure based biophysical characterization of the PROPPIN Atg18 shows Atg18 oligomerization upon membrane binding” (Scientific Reports, 2017).

Tests used:
[1] = molecular target: the molecule itself; test: native MS; purified Atg18 exchanged into 200 mM ammonium acetate; Q-ToF Ultima modified for high mass complexes
[2] = molecular target: the molecule itself; test: FRET or BRET; stopped-flow, 0.5 µM acceptor-labelled Atg18 C113 bound to LUVs with PtdIns(3,5)P2 (1 mM total lipid) mixed with 0.5 µM donor-labelled Atg18 C113 free in solution; 25 °C, HP150 buffer with 0.1 mM TCEP; dye pairs Alexa Fluor 488/546 and Oregon Green/Texas Red

| Protein | stoichiometry N [1] | binding result [2] |
| --- | --- | --- |
| Pichia angusta Atg18 (wild type) (natural protein, Pichia angusta (Hansenula polymorpha), Atg18 of Pichia angusta (Hansenula polymorpha), UniProt entry Q5QA94, synthetic gene in pET-28a; also called PaAtg18; source: E. coli, purified (HisTrap, Superdex 200); not shown: His-tag, N-terminal, kept) MASPNPLAFEAATAAHEVAASYVTEHKPRKNDNINFANFNQDFSCVSVGYSNGYKIYNCEPFGQCYSKSDGSIGIVEMLFSSSLLAIVGMGEQHSLSPRRLKIINTKRQTTICELTFPGAILAVKLNRERLVVLLEETIYIYDINNMRLLHTIETPSNPNGLIALSPSSENNYLAYPSPQKLAPNPQTEVTLHSNPQTVRNGDVIIFDAKTLQPTSVIEAHRTSLAAIALSKDGLLLATASDKGTIIRVFSVATGIKLYQFRRGTYPTKIYSLAFSPDNRFVIASSATETVHIFRLGEEEAANTIKSANKKARLTKAQVPNPLETSPDIYPHNQHTSSDEDEELNEDEEDLDGDEDEDLEDDAHVPVSLQRGRSSSSTGSFHSSESMTDKLKEPLVDNSRKSVARMLRRTSQSLGRKAAEKMGTYLPPKFSSILEPNRHFASLKVPASKETKTVVGVGSKIWDDLIPSVYLKDDANSITETSEDLVNKKLVHIMVITSEGFFYKFGLDPERGGDCVLLHQQSLFG | ≤ 4 |  |
| Atg18 C113 single cysteine mutant, fluorescently labelled (natural protein, Pichia angusta (Hansenula polymorpha), C113 labelled with Alexa Fluor 488 C5 maleimide (donor) or Alexa Fluor 546 C5 maleimide (acceptor); in the repeat with Oregon Green 488 maleimide or Texas Red C2 maleimide, Atg18 of Pichia angusta (Hansenula polymorpha), UniProt entry Q5QA94, synthetic gene in pET-28a; single cysteine mutant that keeps C113; That the other four are alanine in it is read from this; Two differently labelled copies of the same protein were mixed; also called C113 mutant; source: E. coli, purified (HisTrap, Superdex 200), labelled with maleimide dye) MASPNPLAFEAATAAHEVAASYVTEHKPRKNDNINFANFNQDFSAVSVGYSNGYKIYNAEPFGQAYSKSDGSIGIVEMLFSSSLLAIVGMGEQHSLSPRRLKIINTKRQTTICELTFPGAILAVKLNRERLVVLLEETIYIYDINNMRLLHTIETPSNPNGLIALSPSSENNYLAYPSPQKLAPNPQTEVTLHSNPQTVRNGDVIIFDAKTLQPTSVIEAHRTSLAAIALSKDGLLLATASDKGTIIRVFSVATGIKLYQFRRGTYPTKIYSLAFSPDNRFVIASSATETVHIFRLGEEEAANTIKSANKKARLTKAQVPNPLETSPDIYPHNQHTSSDEDEELNEDEEDLDGDEDEDLEDDAHVPVSLQRGRSSSSTGSFHSSESMTDKLKEPLVDNSRKSVARMLRRTSQSLGRKAAEKMGTYLPPKFSSILEPNRHFASLKVPASKETKTVVGVGSKIWDDLIPSVYLKDDANSITETSEDLVNKKLVHIMVITSEGFFYKFGLDPERGGDAVLLHQQSLFG |  | binds |
